Results: patent US12611443B2, “Methods and compositions related to therapeutic peptides for cancer therapy” (THE UNIVERSITY OF CHICAGO, priority 2018, dated 2026)
“Also recorded” adds a separate entry of the source.

B1: Cl: hCD95 C-terminal peptide aa 221-335, mimics ELANE cleavage at site 1 (protein)
chain: AINLSDVDLSKYITTIAGVMTLSQVKGFVRKNGVNEAKIDEIKNDNVQDTAEQKVQLLRNWHQLHGKKEAYDTLIKDLKKANLCTLAEKIQTIILKDITSDSENSNFRNEIQSLV
B2: mouse CD95 (mCD95): mouse CD95 overexpressed in cancer cells (protein, UniProt P25446 22-327, looked up)
Tumor necrosis factor …: QGTNSISESLKLRRRVRETDKNCSEGLYQGGPFCCQPCQPGKKKVEDCKMNGGTPTCAPCTEGKEYMDKNHYADKCRRCTLCDEEHGLEVETNCTLTQNTKCKCKPDFYCDSPGCEHCVRCASCEHGTLEPCTATSNTNCRKQSPRNRLWLLTILVLLIPLVFIYRKYRKRKCWKRRQDDPESRTSSRETIPMNASNLSLSKYIPRIAEDMTIQEAKKFARENNIKEGKIDEIMHDSIQDTAEQKVQLLLCWYQSHGKSDAYQDLIKGLKKAECRRTLDKFQDMVQKDLGKSTPDTGNENEGQCLE
B3: N-terminal domain peptide of CD95: N-terminal domain of human CD95, aa 1-209 (protein, listed as Homo sapiens)
chain: MLGIWTLLPLVLTSVARLSSKSVNAQVTDINSKGLELRKTVTTVETQNLEGLHHDGQFCHKPCPPGERKARDCTVNGDEPDCVPCQEGKEYTDKAHFSSKCRRCRLCDEGHGLEVEINCTRTQNTKCRCKPNFFCNSTVCEHCDPCTKCEHGIIKECTLTSNTKCKEEGSRSNLGWLCLLLLPIPLIVWVKRKEVQKTCRKHRKENQGS
B4: murine ELANE: recombinant mouse ELANE activated with CTSC (protein, UniProt Q3UP87 27-265, looked up)
Neutrophil elastase: SEIVGGRPARPHAWPFMASLQRRGGHFCGATLIARNFVMSAAHCVNGLNFRSVQVVLGAHDLRRQERTRQTFSVQRIFENGFDPSQLLNDIVIIQLNGSATINANVQVAQLPAQGQGVGDRTPCLAMGWGRLGTNRPSPSVLQELNVTVVTNMCRRRVNVCTLVPRRQAGICFGDSGGPLVCNNLVQGIDSFIRGGCGSGLYPDAFAPVAEFADWINSIIRSHNDHLLTHPKDREGRTN
B5: full-length CD95: full length human CD95 (aa 1-335), isoform 1 (protein, listed as Homo sapiens)
chain: MLGIWTLLPLVLTSVARLSSKSVNAQVTDINSKGLELRKTVTTVETQNLEGLHHDGQFCHKPCPPGERKARDCTVNGDEPDCVPCQEGKEYTDKAHFSSKCRRCRLCDEGHGLEVEINCTRTQNTKCRCKPNFFCNSTVCEHCDPCTKCEHGIIKECTLTSNTKCKEEGSRSNLGWLCLLLLPIPLIVWVKRKEVQKTCRKHRKENQGSHESPTLNPETVAINLSDVDLSKYITTIAGVMTLSQVKGFVRKNGVNEAKIDEIKNDNVQDTAEQKVQLLRNWHQLHGKKEAYDTLIKDLKKANLCTLAEKIQTIILKDITSDSENSNFRNEIQSLV
B6: C2: hCD95 C-terminal peptide aa 212-331, mimics ELANE cleavage at site 2 (protein)
chain: SPTLNPETVAINLSDVDLSKYITTIAGVMTLSQVKGFVRKNGVNEAKIDEIKNDNVQDTAEQKVQLLRNWHQLHGKKEAYDTLIKDLKKANLCTLAEKIQTIILKDITSDSENSNFRNEI

Columns and labels:
[1] = system: human/murine cancer cells; assay: In vitro cell viability of cancer cells (calcein-AM, CASP3, ANXA5); type: cell-based; conditions: for effect of ELANE inhibitor treatment of ELANE or PMN media on cancer cell killing: PMSF 1 mM or A1AT 42 nM
From the text: Cell lines. The ovarian cancer cell lines—CAOV3, OVCAR3, OVCAR4, OVCAR5, A2780, A2780/CP70, HeyA8, TykNu, SKOV3, ID8, and ID8p53-/- were a gift from Dr. Ernst Lengyel, University of Chicago. The breast cancer cell lines—MDA-MB-231, MDA-MB-231.BM1, MCF-7, M6C, E0771, and E0771.LMB were a gift from Dr. Marsha Rosner, University of Chicago. The colon carcinoma cell line RKO, glioblastoma cancer cell line T98G, osteosarcoma cell lines U-2OS and Saos-2, and the hepatocellular carcinoma cell line HepG2 were a gift from Dr. Kay McLeod, University of Chicago. The lung cancer cell line NCI-H552 was a gift from Dr. Stephanie Huang, University of Chicago, and A549 and LLC1 cells were purchased from ATTC. The melanoma cell lines—B16F10, Mel888, Mel1106, and SK-MEL-28 cells were a gift from Dr. Thomas Gajewski, University of Chicago. The pancreatic cancer cell line PANC1 was a gift from Dr. Yamuna Krishnan, University of Chicago. The leukemia cell line K562 was a gift from Dr. Amittha Wickrema, University of Chicago.
The prostate cancer cell lines—CWR22Rv1, LAPC4, and LNCaP were a gift from Dr. Donald Vander Griend, University of Chicago. The neuroblastoma cell lines—SK-N-BE(2) and NBL-WN cells were a gift from Dr. Lucy Godley, University of Chicago.
Neutrophil media collections. Freshly isolated human or murine neutrophils were plated in serum-free DMEM for 24 h. Conditioned media was collected, spun at 500×g for 5 min, and media protein levels were determined with a Bradford assay (Biorad).
PMN media manipulations. For boiling, PMN media was boiled at 95° C. for 5 min and spun at 15,000×g for 10 min to remove precipitated proteins. For dialysis, PMN media was placed into a Slide-a-Lyzer™ cassette (3.5 kDa cutoff, ThermoFisher Scientific) and dialyzed against 2×4L of PBS at 4° C. for 4 h. For PMSF-inactivation, PMN media was treated with PMSF (1 mM, Sigma) or A1AT (42 nM, Athens Research & Technology) and incubated at room temperature for up to 2 h. Residual PMSF was eliminated with a PD-10 desalting column (GE Healthcare Life). Inhibition of ELANE catalytic activity was confirmed using a chromogenic substrate activity assay (see below). For serum-spiking experiments, human, mouse, or fetal bovine serum (1% or 10%) was added to PMN media prior to or after exposing cancer cells. For immune-depletion studies, ELANE or ECP were immunoprecipitated using anti-ELANE (N2C3, GeneTx) or anti-ECP (MB S2535165, MyBioSource) coupled to Pierce™ Protein A/G Magnetic Beads (ThermoFisher Scientific).
(§1) In vitro cell viability assays. […] Luminescence was measured using a Victor X3 luminometer (PerkinElmer).

[2] = system: cancer cells; assay: CD95 protein overexpression in cancer cells, viability in absence of ELANE (calcein-AM); type: cell-based, human; conditions: transient overexpression
Protocol: FIGS. 1A-1K. ELANE cleaves CD95 to selectively kill cancer cells. (A): Heatmap summary of ELANE's effects on survival, stress, and apoptosis pathways in cancer cells and healthy cells. (B-C): Cancer cells were treated with ELANE (100 nM) and CD95 cleavage was assessed by western blotting using anti-N-terminal (B) or anti-C-terminal antibodies (C). *, lower molecular weight CD95 fragment. (D): Cancer cells or non-cancer cells were transduced to overexpress CD95 proteins, and effects on ELANE-mediated apoptosis were quantified by ANXAS at 30 min. n=2/group. See FIG. 1I for transduction and CD95 over-expression. (E): Cleavage of recombinant human CD95 N-terminal (aa 1-173) or C-terminal (aa 212-335) proteins by ELANE was assessed by SDS-PAGE and Coomassie blue staining. (F): Bands from (E) were digested with trypsin and analyzed by mass spectrometry to identify putative ELANE cleavage sites (i.e., peptides with non-tryptic ends). Major non-tryptic peptides were quantified by ion chromatograms. (G): Schematic of ELANE cleavage sites in CD95. […] (H): Cleavage of recombinant peptides corresponding to aa 214-231 and aa 317-335 in CD95 by ELANE was monitored by mass spectrometry. (I): Cancer cells or non-cancer cells were treated with fluorescein-labeled ELANE for 10 min and uptake was visualized by immunofluorescence. (J): ELANE catalytic activity in cancer cell lysates following exposure to ELANE for 30 mins in the presence and absence of Dynasore (60 μM endocytosis inhibitor). Effect of Dynasore on cancer cell killing capability of ELANE (measured by calcein-AM). n=6/group. (K): Cancer cells or non-cancer cells were transduced to overexpress various CD95 proteins, and cell viability in the absence of ELANE was determined by calcein-AM. n=10/group. *, p<0.05 Student's t-test.
as §1
(§2) CD95 overexpression studies. Polycistronic adenoviral vectors were prepared to express the human and mouse CD95 sequences followed by the Encephalomyocarditis virus (EMCV) internal ribosome entry site and dTomato sequence under the control of the cytomegalovirus (CMV) promoter (VectorBuilder). Human and murine cancer cells or normal or non-cancer cells were transduced to over-express full-length CD95, N-terminal CD95 (human: aa 1-209; mouse: aa 1-204), C-terminal CD95 (human: aa 212-335; mouse: aa 204-327), or C-terminal CD95 that mimicked ELANE cleavage at site 1 (human: aa 221-335), site 2 (human: aa 212-331), or both sites (aa 221-331). Cancer cells or normal or non-cancer cells were transduced with adenoviruses at an MOI of 50-250 depending on cell type, and expression of dTomato and CD95 (human: 558814; mouse, mouse: 565130, BD Biosciences) were confirmed by flow cytometry. A vector encoding GFP (Vector Builders) was used as a control.

[3] = system: human and murine cancer cells; assay: CD95 overexpression, ELANE-mediated apoptosis (ANXA5); type: cell-based; conditions: ELANE 40 nM, ANXA5 at 30 min
Protocol: FIGS. 2A-2D Overexpressing CD95 proteins accelerates cancer cell killing by ELANE. Polycistronic adenoviral vectors were prepared to express the human and mouse CD95 sequences followed by the Encephalomyocarditis virus (EMCV) internal ribosome entry site and dTomato sequence under the control of the cytomegalovirus (CMV) promoter. Human and murine cancer cells or non-cancer cells were transduced to over-express full-length CD95, N-terminal CD95 (human: aa 1-209; mouse: aa 1-204), or C-terminal CD95 (human: aa 212-335; mouse: aa 204-327). (A): Transduction efficiency quantified by dTomato (Left). CD95 levels in dTomato− and dTomato+ cells quantified by geometric mean (MFI) (Middle). ANXA5 levels in dTomato− and dTomato+ cells 30 min after treatment with ELANE (40 nM) (Right). Representative data for A549 cells are shown. (B-C): Quantification of transduction efficiency (B) and relative CD95 overexpression (C) for cancer cells and non-cancer cells. (D): Quantification of ANXA5 levels following ELANE treatment (40 nM, 30 min) for mouse cancer cell lines (E0771, B16F10). *, p<0.05 Student's t-test.
as §1, §2

| Molecule | cancer cell death/toxicity on expression in the absence of ELANE [2] | effect of overexpression on ELANE-mediated killing [3] | other results |
| --- | --- | --- | --- |
| O=S(=O)(F)Cc1ccccc1 [PMSF] | – | – | effect of ELANE inhibitor treatment of ELANE or PMN media on cancer cell killing [1]: eliminated the ability of PMN media to kill cancer cells in vitro and in vivo; also recorded: protects cancer cells from apoptosis |
| A1AT: alpha-1-anti-trypsin, irreversible non-competitive ELANE inhibitor | – | – | effect of ELANE inhibitor treatment of ELANE or PMN media on cancer cell killing [1]: eliminated the ability of PMN media to kill cancer cells in vitro and in vivo; effect of ELANE inhibitor treatment of ELANE or PMN media on cancer cell killing ([1]; listed as alpha-1-antitrypsin): protects cancer cells from apoptosis |
| B1 | toxic | – | cancer cell death/toxicity on expression in the absence of ELANE ([2]; listed as aa. 221-335 of SEQ ID NO:1): induced cancer cell death in the absence of ELANE |
| B2 | – | did not protect against ELANE-mediated killing, but rather accelerated it | – |
| B3 | not toxic to cancer cells | had no effect | – |
| B4 | – | – | cancer cell killing by murine ELANE [1]: kills cancer cells |
| B5 | not toxic to cancer cells | accelerated ELANE-mediated killing in human cancer cells | effect of overexpression on ELANE-mediated killing ([3]; listed as human CD95 (hCD95)): did not protect against ELANE-mediated killing, but rather accelerated it |
| B6 | toxic | – | cancer cell death/toxicity on expression in the absence of ELANE ([2]; listed as aa. 212-331 of SEQ ID NO:1): induced cancer cell death in the absence of ELANE |
